These results are taken from the supplement of paper PMC12455559.

Data set [1] can be described thus: PET hydrolysis, aromatic products released after 48 h (umol product/mg enzyme); higher = more PET depolymerization activity. An outline of the steps:
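Reactions ran in sealed plates without shaking for 48 h at 40 or 60 °C. Each held 3.5 mg amorphous PET film or crystalline PET powder, 450 μL buffer and 5 μg (50 μL) of tagless, SUMO-cleaved, nickel-purified candidate enzyme. Buffers were 50 mM NaCitrate at pH 4.5 or 5.5, 50 mM NaPhosphate at pH 6.5 or 7.5, and glycine at pH 8.5. The supernatant's aromatic product, read at 260 and 280 nm against buffer blanks, gives PET hydrolysis activity per mg enzyme.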

Data set [2] is described as follows: melting temperature (DSF); higher = more thermostable. An outline of the steps: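 Candidate enzymes were expressed in E. coli C41(DE3), purified on nickel beads and released by SUMO protease cleavage. For differential scanning fluorimetry, 45 μL enzyme (0 to 0.3 mg/mL) was mixed with 5 μL 5X Sypro Orange in sealed PCR plates on a Bio-Rad CFX96 instrument. Fluorescence was read from 25 °C in steps of 0.3 °C per cycle (ramp 0.3 °C/s) for 250 cycles. The read-out is melting temperature.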

Data set [3] can be described thus: purified protein yield per well (BCA); higher = higher soluble expression. Put shortly: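 On an OT-2 robot, lysed cells were processed by binding protein to Ni-charged magnetic beads and releasing it with SUMO protease. Expression took place in E. coli C41(DE3), in 2 mL autoinduction cultures with 100 µg/mL kanamycin, for 2 h at 37 °C followed by 40 h at 18 °C. The Pierce Rapid Gold BCA kit was used to quantify purified protein yield in each well, with values under 25 ug (0.1 mg/mL) below the detection threshold.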

Setting [4] is: substrate: aFilm, 40 °C, pH 4.5.
Setting [5] is: substrate: aFilm, 40 °C, pH 5.5.
Setting [6] is: substrate: aFilm, 40 °C, pH 6.5.
The mark [7] stands for this setting: substrate: aFilm, 40 °C, pH 7.5.
Setting [8] is: substrate: aFilm, 60 °C, pH 4.5.
The mark [9] stands for this setting: substrate: aFilm, 60 °C, pH 5.5.
Where [10] appears, read: substrate: aFilm, 60 °C, pH 6.5.
The mark [11] stands for this setting: substrate: aFilm, 60 °C, pH 7.5.
Where [12] appears, read: substrate: cryPow, 40 °C, pH 4.5.
Where [13] appears, read: substrate: cryPow, 40 °C, pH 5.5.
The mark [14] stands for this setting: substrate: cryPow, 40 °C, pH 6.5.
[15] abbreviates: substrate: cryPow, 40 °C, pH 7.5.
[16] abbreviates: substrate: cryPow, 60 °C, pH 4.5.
Setting [17] is: substrate: cryPow, 60 °C, pH 5.5.
Setting [18] is: substrate: cryPow, 60 °C, pH 6.5.
Setting [19] is: substrate: cryPow, 60 °C, pH 7.5.

In the case of “ADNPYERGPAPTEASVEAPRGPYAVSETTVSPLAVTGFGGGTVYYPTSTADGTFGAIAVSPGYTGTQSSIAWLGPRLASQGFVVFTIDTLTTLDQPDSRGRQLLAALDYLTQKSSVRGRIDSTRLGVMGHSMGGGGSLEAAKSRPSLQAAIPLTPWNLDKTWPEVATPTLIFGADGDTIAPVATHAEPFYTSLPASLDRAYLELNGATHFTPNTSNTTIAKYSIAWLKRFIDDDTRYEQFLCPLPRPGLTIEEYRGNCPHTS [TEP117]”, the PET hydrolysis in data set [1] (setting [4]), in data set [1] (setting [5]), in data set [1] (setting [6]), in data set [1] (setting [7]), in data set [1] (setting [8]) and in data set [1] (setting [9]) was under 3 each time. Moreover, the PET hydrolysis in data set [1] (setting [10]), in data set [1] (setting [11]), in data set [1] (setting [12]), in data set [1] (setting [13]), in data set [1] (setting [14]) and in data set [1] (setting [15]) was under 3 throughout. The PET hydrolysis in data set [1] (setting [16]), in data set [1] (setting [17]), in data set [1] (setting [18]) and in data set [1] (setting [19]) was under 3 throughout. In data set [2], this sequence displayed a melting temperature of 40 C. In data set [3], the “purified protein yield per well” value stood at 202 µg.

Consider “DEIGQAPTASNITGNGSFATTSASISSTVAGFGGGRVYYPTATGTYPVIAISPGFTATWSSLSWIGPRLSSWGFVVVGIETNSIYDQPGSRGSQLLAALNWAVSSSPTAVRSRVDGSRRGVAGHSMGGGGTLEALAADTSGLVKAGVPLAPWNSDKTWNNVSEPVLIVGGQSDTIAPVSSHSVPFYNTLAGPKTYVELTGASHFFPQSSNATTSRALVSWFKRWLNQDSRFTPFTCGFSGAAVSSFRTNAC [ESM093]”, for which the PET hydrolysis in data set [1] (setting [12]) is under 3; in data set [1] (setting [13]), 25; in data set [1] (setting [14]), 44; in data set [1] (setting [15]) it was 72; in data set [1] (setting [16]), under 3; in data set [1] (setting [17]) it was 7. For the same sequence, the PET hydrolysis is 23 in data set [1] (setting [18]) and 39 in data set [1] (setting [19]). This sequence also returned a melting temperature in data set [2] of 65.2 C. The “purified protein yield per well” value in data set [3] turned out to be 93.2 µg.

On to “QTNPFQRGPAPTEATLEATRGPMATSQFTVSRPSGYRAGTVYYPTNAGGTVGGIVVVPGYTAYQSDINWWGPRLASWGFIVMTIDTNSTLDQPASRSRQQLAALDQLATLSRTSSSPIYNKLDTNRMGVMGWSMGGGGSLISTENRPSLKASIPFAPWNSTENFSSVTVPTLIIACQDDSIAPVYSHASPFYNSMTRNPKQFLEVRGEGHYCANSSNSDKDFLGKKGVAWMKRFMDNDTRFTTFACTNQESSLDVSDFRTARCS [DP032]”, for which the PET hydrolysis is under 3 in data set [1] (setting [13]); under 3 in data set [1] (setting [14]); under 3 in data set [1] (setting [15]); under 3 in data set [1] (substrate: cryPow, 40 °C, pH 8.5). The sequence also yielded a melting temperature in data set [2] of 44.5 C. In addition, the “purified protein yield per well” value in data set [3] was 38 µg.

On to “ATPDHAATADHASAHHHAAYPVSQQTIPATDGTGFGAATLYAPQGTGRKTLGAIVVAPGLKGDQSDLAWLAQDLAGEGFIVLNMDTLGKYDLPNQRSYEMLAAAKYLATASSVKDQVDPADIGVVGYSLGGGGALQAAVEQHGLKAAVALMPYDFPAGTTDPYKPTESPTYPGITTPTLVITGQADTTAPAASMGKPAYDSIPASTPKQYLELRGADHLAARATTNGTVRDAVTNFLKVYLDGNSAYRKYVCPAPPTSAAISESASSCPR [ESM174]”, for which the PET hydrolysis in data set [1] (setting [12]), in data set [1] (setting [13]), in data set [1] (setting [14]), in data set [1] (setting [15]), in data set [1] (setting [16]) and in data set [1] (setting [17]) was under 3 throughout. Further, the PET hydrolysis in data set [1] (setting [18]) and in data set [1] (setting [19]) was under 3 in each case. The sequence also came in with a melting temperature in data set [2] of 44.5 C. In addition, the “purified protein yield per well” value in data set [3] came out at 86.9 µg.

For the sequence “GSLAHIVMVDAYKPTKGSGASQTNPYARGPNPTAASLEASAGPFTVRSFTVSRPSGYGAGTVYYPTNAGGTVGAIAIVPGYTARQSSIKWWGPRLASHGFVVITIDTNSTFDYPSSRSSQQMAALRQVASLNGDSSSPIYGKVDTARMGVMGHSMGGGASLRSAANNPSLKAAIPQAPWDSQTNFSSVTVPTLIFACENDSIAPVNSHALPIYDSMSRNAKQFLEINGGSHSCANSGNSNQALIGKKGVAWMKRFMDNDTRYSTFACENPNSTAVSDFRTANCSLEGSGGSGAHIVMVDAYKPTK [TEP004]”, the PET hydrolysis is 4 in data set [1] (setting [12]); 33 in data set [1] (setting [13]); 62 in data set [1] (setting [14]); 69 in data set [1] (setting [15]); under 3 in data set [1] (setting [16]); 14 in data set [1] (setting [17]). In addition, the results for the PET hydrolysis in data set [1] (setting [18]) and in data set [1] (setting [19]) were 76 and 82, respectively. Further, in data set [2], the melting temperature amounted to 73.9 C. In data set [3], the “purified protein yield per well” value amounted to 77.2 µg.

Take “ADNPFQRGPNPTVASVAATRGTFATAQTSVPAGNGFGGGVVYYPTDTSQGTFGGVAIVPGYSALFADEEAWMGPWLASFGFVVIGIETNSRTDSADARGTELLAALDYLTQRSPVRDRVDPNRLSVVGHSAGGAGVLSALLRRPSLKAGVGLAPGSPVGNYDLYSDRVPTMFISGQRDTTVTQSYLNGLYSTLPATTPSAWVEITGVDHLFATRANTTEMRVLIPWLKIWVDNDTRYTQFLCPLADSTGISMYRDKCPYVPPGGSSPSPSASPSSTPSRSPSPSPSPSPSPSPSPSPSPSPSPSPSASPSLPPPGACVAEYRTMNSWPGGYQAMVTVTAGGTAVNGWTVRWTLGGGQTISQLWNGTLSTSGSAVTVKNASYNGSIPASGSATFGFLATGTPSTPSLTCTSP [ESM036]”: the PET hydrolysis in data set [1] (setting [4]), in data set [1] (setting [5]), in data set [1] (setting [6]), in data set [1] (setting [7]), in data set [1] (setting [8]) and in data set [1] (setting [9]) was under 3 throughout. Further, the PET hydrolysis in data set [1] (setting [10]), in data set [1] (setting [11]), in data set [1] (setting [12]), in data set [1] (setting [13]), in data set [1] (setting [14]) and in data set [1] (setting [15]) was under 3 throughout. Moreover, the PET hydrolysis in data set [1] (setting [16]), in data set [1] (setting [17]), in data set [1] (setting [18]) and in data set [1] (setting [19]) was under 3 each time. The melting temperature in data set [2] is 49.6 C. In addition, the “purified protein yield per well” value in data set [3] is 376 µg.
